Molecular target: AD-CaM (Calmodulin, encoded by the CALM2 gene, fused to the activation domain) (human, UniProt P0DP24 1-149)
Test: yeast two-hybrid, HIS3 and LacZ reporters

binding result: no binding
B1: DB-Q2C R353G mutant (other, not shown: small tags and cut ends)
chain: KVQEQHRQKHFEKRRNPAAGLIQSAWRFYATNLSGTDLHSTWQYYERTVTVPMYSSQTQTYGASRLIPPLNQLELLRNLKSKSGLAFRKDPPPEPSPSQKVSLKDRVFSSPRGVAAKGKGSPQAQTVRRSPSADQSLEDSPSKVPKSWSFGDRSRARQAFRIKGAASRQNSEEASLPGEDIVDDKSCPCEFVTEDLTPGLKVSIRAVCVMRFLVSKRKFKESLRPYDVMDVIEQYSAGHLDMLSRIKSLQSRVDQIVGRGPAITDKDRTKGPAEAELPEDPSMMGRLGKVEKQVLSMEKKLDFLVNIYMQRMGIPPTETEAYFGAKEPEPAPPYHSPEDSREHVDRHGCIVKIVRSSSSTGQKNFSAPPAAPPVQCPPSTSWQPQSHPRQGHGTSPVGDHGSLVRIPPPPAHERSLSAYGGGNRASMEFLRQEDTPGCRPPEGTLRDSDTSISIPSVDHEELERSFSGFSISQSKENLDALNSCYAAVAPCAKVRPYIAEGESDTDSDLCTPCGPPPRSATGEGPFGDVGWAGPRK
notes: Only the intracellular C-terminal region stood in the bait, made with the same primers as the wt construct; also called R353G KCNQ2 mutant
